In test [1] the target is T1, TMR-labeled DnaK (DnaK FRET construct C15A/M404C/T437C labelled with tetramethylrhodamine) (E. coli, UniProt P0A6Y8 1-638, C15A | M404C | T437C, tetramethylrhodamine (TMR, from 5-IATR) on both introduced cysteines (M404C, T437C)).
T1 construct: DnaK, an E. coli Hsp70, with C15A, M404C, T437C; ATP (2 mM) present in the DnaJ experiments; source: E. coli dnak deletion strain BB205 (plasmid pBB46), purified, labelled with 5-IATR, HiTrap Q, monomer peak used
Nature of the test: other fluorescence titration; quenching of two TMR labels on DnaK (called FRET by the paper); 30 nM TMR-labeled DnaK, 2 mM ATP, buffer C (30 mM Tris-HCl pH 7.5, 25 mM KCl, 3 mM MgCl2, 10% glycerol), room temperature, DnaJ added at indicated concentrations. The following applies: both partners purified.

The target of test [2] is T2, TMR-labeled BiP protein (BiP-C41A/C420A/V429C/T462C labelled with tetramethylrhodamine) (human, UniProt P11021 19-654, C41A | C420A | V429C | T462C, tetramethylrhodamine (TMR, from 5-IATR) on both introduced cysteines (V429C, T462C)).
T2 construct: human BiP with C41A, C420A, V429C, T462C; ATP (2 mM) present in the ERdj3 experiments; also called TMR-labeled BiP FRET protein; source: E. coli BL21(DE3) Gold, purified, labelled with 5-IATR, HiTrap Q, monomer peak used; not shown: His6, N-terminal, cleaved; Smt3, N-terminal, cleaved
Nature of the test: other fluorescence titration; quenching of two TMR labels on BiP (called FRET by the paper); 300 nM TMR-labeled BiP, 2 mM ATP, buffer B (30 mM Tris-HCl pH 7.0, 100 mM KCl, 3 mM MgCl2, 3 mM CaCl2, 10% glycerol), room temperature, serial dilutions of ERdj3, one-site binding fit. The following applies: both partners purified.

T2 sequence (P11021 19-654 C41A/C420A/V429C/T462C): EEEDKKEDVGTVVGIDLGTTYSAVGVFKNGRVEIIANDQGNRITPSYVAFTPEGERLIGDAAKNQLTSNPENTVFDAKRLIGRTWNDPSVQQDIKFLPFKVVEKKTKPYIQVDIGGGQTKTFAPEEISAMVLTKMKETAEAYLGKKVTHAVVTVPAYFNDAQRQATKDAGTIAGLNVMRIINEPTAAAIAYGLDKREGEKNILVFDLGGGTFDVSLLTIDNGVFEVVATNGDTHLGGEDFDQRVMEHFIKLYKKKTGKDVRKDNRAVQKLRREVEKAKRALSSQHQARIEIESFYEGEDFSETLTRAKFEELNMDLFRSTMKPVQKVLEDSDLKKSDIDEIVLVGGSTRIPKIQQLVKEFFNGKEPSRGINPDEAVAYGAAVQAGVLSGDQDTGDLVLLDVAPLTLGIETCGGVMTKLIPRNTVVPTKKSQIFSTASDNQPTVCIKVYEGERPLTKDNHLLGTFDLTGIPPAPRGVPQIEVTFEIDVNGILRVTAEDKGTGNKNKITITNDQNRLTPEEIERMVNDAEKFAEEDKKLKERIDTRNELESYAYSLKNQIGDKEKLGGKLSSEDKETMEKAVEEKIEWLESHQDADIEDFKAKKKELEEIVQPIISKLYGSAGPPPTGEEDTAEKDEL

B1: DnaJ (natural protein, UniProt P08622 1-376, looked up)
chain: MAKQDYYEILGVSKTAEEREIRKAYKRLAMKYHPDRNQGDKEAEAKFKEIKEAYEVLTDSQKRAAYDQYGHAAFEQGGMGGGGFGGGADFSDIFGDVFGDIFGGGRGRQRAARGADLRYNMELTLEEAVRGVTKEIRIPTLEECDVCHGSGAKPGTQPQTCPTCHGSGQVQMRQGFFAVQQTCPHCQGRGTLIKDPCNKCHGHGRVERSKTLSVKIPAGVDTGDRIRLAGEGEAGEHGAPAGDLYVQVQVKQHPIFEREGNNLYCEVPINFAMAALGGEIEVPTLDGRVKLKVPGETQTGKLFRMRGKGVKSVRGGAQGDLLCRVVVETPVGLNERQKQLLQELQESFGGPTGEHNSPRSKSFFDGVKKFFDDLTR
notes: DnaJ, the Hsp40 partner of DnaK; also called Hsp40 co-chaperone DnaJ; source: E. coli BL21(DE3) Gold, purified (HisTrap, Ulp1, HisTrap, Superdex 200); not shown: Smt3, N-terminal, cleaved; His6 (from the vector pSMT3), N-terminal, cleaved
As to B1, the “fold change of the dissociation constant against ERdj3-BiP” value in test [1] is about 10 times lower.

B2: ERdj3 (natural protein, UniProt Q9UBS4 23-358, looked up)
chain: GRDFYKILGVPRSASIKDIKKAYRKLALQLHPDRNPDDPQAQEKFQDLGAAYEVLSDSEKRKQYDTYGEEGLKDGHQSSHGDIFSHFFGDFGFMFGGTPRQQDRNIPRGSDIIVDLEVTLEEVYAGNFVEVVRNKPVARQAPGKRKCNCRQEMRTTQLGPGRFQMTQEVVCDECPNVKLVNEERTLEVEIEPGVRDGMEYPFIGEGEPHVDGEPGDLRFRIKVVKHPIFERRGDDLYTNVTISLVESLVGFEMDITHLDGHKVHISRDKITRPGAKLWKKGEGLPNFDNNNIKGSLIITFDVDFPKEQLTEEAREGIKQLLKQGSVQKVYNGLQGY
notes: ERdj3, an Hsp40 co-chaperone of BiP in the ER; plasmid a gift of Dr. Linda Hendershot; also called Hsp40 ERdj3; source: M15 E. coli, purified (HisTrap, 2 M urea in the lysis buffer, dialysis)
As for B2, the Kd (commonly the free concentration of one partner at which half of the binding sites on the other are occupied at equilibrium, for simple one-to-one binding) in test [2] amounted to 1670 ± 110 nM.

These data come from paper PMC5662698, “Conformation transitions of the polypeptide-binding pocket support an active substrate release from Hsp70s” (Nature Communications, 2017).
